Our source for the k2, inhibition of FIXa by ATIII/Fond (460 nM fondaparinux), k2, inhibition of FIXa by ATIII/UFH (0.24 U/mL) and k2, inhibition of FIXa by ATIII, no heparin values is patent publication US20160122739A1.

Holding throughout (assay): cell-based or functional assay
The target of assay [1] is recombinant human Factor IXa K126A/K132A (human) (UniProt P00740).
Assay [2] concerns the target recombinant human Factor IXa K132A/R150A (human) (UniProt P00740).
The target in assay [3] is recombinant human Factor IXa K126A/R150A (human) (UniProt P00740).
Assay [4] concerns the target recombinant human Factor IXa K126A (human) (UniProt P00740).
Assay [5] concerns the target recombinant human Factor IXa R150A (human) (UniProt P00740).
The target of assay [6] is recombinant human Factor IXa K132A (human) (UniProt P00740).
The target in assay [7] is recombinant human Factor IXa K126A/K132A/R150A (human) (UniProt P00740).
Assay [8] has as its target human plasma-derived Factor IXa (human) (UniProt P00740).
Assay [9] addresses recombinant human Factor IXa wild-type (human) (UniProt P00740).

Turning to “human plasma-derived antithrombin (from UniProt P01008 33-464)”, the k2, inhibition of FIXa by ATIII/Fond (460 nM fondaparinux) in [1] was 2640 M⁻¹ s⁻¹; in assay [2], 68.3 M⁻¹ s⁻¹; in [3], 63.3 M⁻¹ s⁻¹; in assay [4], 3300 M⁻¹ s⁻¹; in assay [5] it was 71.7 M⁻¹ s⁻¹; in assay [6], 3250 M⁻¹ s⁻¹. For the same substance, the k2, inhibition of FIXa by ATIII/Fond (460 nM fondaparinux) in [7] was found to be 68.3 M⁻¹ s⁻¹; in assay [8] it was 3520 M⁻¹ s⁻¹; in assay [9] it was 3290 M⁻¹ s⁻¹. The k2, inhibition of FIXa by ATIII/UFH (0.24 U/mL) in [1] is 423 M⁻¹ s⁻¹; in assay [4], 1560 M⁻¹ s⁻¹; in assay [5], 262 M⁻¹ s⁻¹; in assay [6], 3740 M⁻¹ s⁻¹; in assay [7], 6.67 M⁻¹ s⁻¹; in assay [8], 3430 M⁻¹ s⁻¹. Moreover, the k2, inhibition of FIXa by ATIII/UFH (0.24 U/mL) in assay [9] turned out to be 4330 M⁻¹ s⁻¹. Further, in assay [9], the k2, inhibition of FIXa by ATIII, no heparin came to 51.7 M⁻¹ s⁻¹.
